Results on one protein are retold here after paper PMC8490876, “Functional Characterization of a L-2-Haloacid Dehalogenase From Zobellia galactanivorans Dsij^T Suggests a Role in Haloacetic Acid Catabolism and a Wide Distribution in Marine Environments” (Frontiers in Microbiology, 2021).

Substrate in data set [1]: O=C(O)CI
The experiment in a line: purified protein. The format is biochemical, Zobellia galactanivorans. The note with it: 20 °C, 1 mM HEPES, 1 mM EDTA, 20 mM sodium sulfate, 56 μM phenol red, pH 8.2 (initial), 0.3 mg/ml enzyme.

Substrate in data set [2]: O=C(O)CBr
Briefly: purified protein. The format is biochemical, Zobellia galactanivorans. The settings on record: 20 °C, 1 mM HEPES, 1 mM EDTA, 20 mM sodium sulfate, 56 μM phenol red, pH 8.2 (initial), 0.3 mg/ml enzyme.

B1: ZgHAD (Zobellia galactanivorans) (protein)
chain: MSAKVKKPELLIFDVNETLLDMGPLENAINESLNSEHAFSLWFRTLLHYSLTETLTGNYVDFGTIGKATLKMTMRKFGKNLSEDRLDAILGNIKKLPAHEDVKEGLKMLKEAQIKLVALSNSNGKLLNAQLQFAGLADYFDAIFSVEAVGRYKPELASYRAVLETMKVPAENTMMVAAHGWDILGAKRAGLRTAFVAREGHAIYPLDGTPELEAKTVLEVARTLLKN
notes: recombinant, pFO4 vector, E. coli BL21 (DE3); homodimer in solution
As for B1, the results for the Km in “purified protein [1]” and in the data set “purified protein [2]” were 310 µM and 460 µM, respectively.
